In patent US9057062B2, “Enzyme produced by Arthrobacter globiformis” (MATSUTANI CHEMICAL INDUSTRY CO., LTD., priority 2011, dated 2015):

What was measured:
Assay type in all cases: biochemical, Arthrobacter globiformis M30
[1] = biological target: ketose 3-epimerase (D-PE) (Arthrobacter globiformis, UniProt A0A1L7NQ96)
[2] = substrate: O=C(CO)[C@@H](O)[C@H](O)[C@H](O)CO; assay: Km and Vmax of the present enzyme; conditions: other: 30° C., in the presence of Mg2+ ions
Procedure: (§1) The enzyme reaction was performed at 30° C. for 30 min, and the amount of the enzyme that produced 1 micromole of D-fructose in 1 min under these conditions was taken as one unit. After the reaction, the reaction mixture was put in a boiling liquid for 3 min to quench the reaction. After deionization, the product D-fructose was measured by HPLC analysis. Protein measurement was performed by using the Bradford method, using 5 μL of the enzyme liquid added to a Bradford solution (250 μl) and evenly stirred therein.
(§2) The Km and Vmax of the present enzyme for D-psicose and D-fructose were measured. The measurement was made by measuring enzyme activity at 30° C. in the presence of Mg^2+ ions.

[3] = substrate: O=C(CO)[C@H](O)[C@H](O)[C@H](O)CO; assay: Km and Vmax of the present enzyme; conditions: other: 30° C., in the presence of Mg2+ ions
Procedure: as §1, §2

Molecule	Effect of metal ion on enzyme activity [1]	Km [2] [mM]	Vmax [2] [U/mg]	Km [3] [mM]	Vmax [3] [U/mg]
[Mn+2] [Mn^2+, divalent manganese ions]	activatable				
[Co+2] [Co^2+, divalent cobalt ions]	activatable				
ketose 3-epimerase, purified enzyme (Arthrobacter globiformis) (protein, disrupted with a high-pressure homogenizer to extract the enzyme; made in house; host or cells: Arthrobacter globiformis M30 (native producer); Purified by PEG fractionation, Q-Sepharose ion exchange and RESOURCE PHE hydrophobic chromatography) MKIGCHGLVWTGHFDAEGIRYSVQKTREAGFDLVEFPLMDPFSFDVQTAKSALAEHGLAASASLGLSDATDVSSEDPAVVKAGEELLNRAVDVLAELGATDFCGVIYSAMKKYMEPATAAGLANSKAAVGRVADRASDLGINVSLEVVNRYETNVLNTGRQALAYLEELNRPNLGIHLDTYHMNIEESDMFSPILDTAEALRYVHIGESHRGYLGTGSVDFDTFFKALGRIGYDGPVVFESFSSSVVAPDLSRMLGIWRNLWADNEELGAHANAFIRDKLTAIKTIELH		31.5	68.5	30.1	168
